# In the Immune Epitope Database (IEDB):
# Legend:
# Test in all cases: IEDB peptide-MHC binding, purified MHC/competitive/radioactivity; filed as Kd, often an IC50 or EC50 that approximates it; ≥ and ≤ were set here for values at or beyond the usual limits of such assays
# HLA-A*03:01 = target: HLA-A*03:01
# HLA-A*11:01 = target: HLA-A*11:01
# HLA-A*31:01 = target: HLA-A*31:01
# HLA-A*33:01 = target: HLA-A*33:01
# HLA-A*68:01 = target: HLA-A*68:01
# [1] = source organism: Vaccinia virus WR
# [2] = source organism: Dengue virus 3 Martinique/1243/1999
# [3] = source organism: SARS coronavirus Tor2
# [4] = source organism: Dengue virus 1 Brazil/97-11/1997
# [5] = source organism: Lassa virus Josiah
# [6] = source organism: Dengue virus 2 Jamaica/1409/1983
# [7] = source organism: Mammarenavirus lassaense
Sequence,Kd (HLA-A*03:01; [1]) [nM],Kd (HLA-A*11:01; [1]) [nM],Kd (HLA-A*31:01; [1]) [nM],Kd (HLA-A*33:01; [1]) [µM],Kd (HLA-A*68:01; [1]) [nM],also measured
AAGIIILMEY,6280,1340,1030,7.17,1200,
AARILSEKR,≥ 78000,6080,36.3,1.07,852,
AGLAFSIMK,,,,,,Kd (HLA-A*11:01; [2]): 13.8 nM
AIEPSGNNY,≥ 59600,5790,≥ 77900,≥ 77.7,≥ 77700,
AIVCRFDTR,,,,,,Kd (HLA-A*03:01; [3]): 4170 nM; Kd (HLA-A*11:01; [3]): 1210 nM; Kd (HLA-A*31:01; [3]): 133 nM; Kd (HLA-A*33:01; [3]): 0.329 µM; Kd (HLA-A*68:01; [3]): 563 nM
ALAYYNNSK,,,,,,Kd (HLA-A*03:01; [3]): 44.5 nM; Kd (HLA-A*11:01; [3]): 29 nM; Kd (HLA-A*31:01; [3]): 7570 nM; Kd (HLA-A*33:01; [3]): ≥ 45.9 µM; Kd (HLA-A*68:01; [3]): 832 nM
ALSTNHGHK,,,,,,Kd (HLA-A*03:01; [3]): 30 nM; Kd (HLA-A*11:01; [3]): 619 nM; Kd (HLA-A*31:01; [3]): 8930 nM; Kd (HLA-A*33:01; [3]): ≥ 46.5 µM; Kd (HLA-A*68:01; [3]): 3050 nM
AMRCVGIGNR,,,,,,Kd (HLA-A*31:01; [4]): 872 nM
AMSCDFNGGK,,,,,,Kd (HLA-A*03:01; [5]): 2000 nM; Kd (HLA-A*11:01; [5]): 273 nM; Kd (HLA-A*31:01; [5]): ≥ 30000 nM; Kd (HLA-A*33:01; [5]): ≥ 24.2 µM; Kd (HLA-A*68:01; [5]): ≥ 26700 nM
ASLPTTIAK,,,,,,Kd (HLA-A*31:01; [3]): 118 nM; Kd (HLA-A*33:01; [3]): ≥ 40.3 µM; Kd (HLA-A*68:01; [3]): 2030 nM
ASLPYGANK,,,,,,Kd (HLA-A*03:01; [3]): 177 nM; Kd (HLA-A*11:01; [3]): 111 nM; Kd (HLA-A*31:01; [3]): 514 nM; Kd (HLA-A*33:01; [3]): ≥ 52.2 µM; Kd (HLA-A*68:01; [3]): 16500 nM
AVQTKPGLFK,,,,,,Kd (HLA-A*03:01; [6]): 16.6 nM; Kd (HLA-A*11:01; [6]): 37.9 nM
CFPSTQRDY,868,2510,9810,≥ 77.7,≥ 58400,
DIVNEHDIK,≥ 63200,≥ 77900,≥ 77900,≥ 77.7,3670,
DLDKVYEILK,3350,751,12000,≥ 24.3,1300,
EFCVDHPFIY,≥ 70100,11000,≥ 37600,≥ 44.4,≥ 54700,
EITHHAVSR,,,,,,Kd (HLA-A*33:01; [2]): 0.0898 µM; Kd (HLA-A*68:01; [2]): 24.1 nM
ETLGEKWKR,,,,,,Kd (HLA-A*33:01; [4]): 0.0134 µM; Kd (HLA-A*68:01; [4]): 69.2 nM
ETLTSVFQK,,,,,,Kd (HLA-A*11:01; source organism: Homo sapiens): 11 nM
FCNLSDAHK,,,,,,Kd (HLA-A*03:01; [5]): ≥ 36200 nM; Kd (HLA-A*11:01; [5]): ≥ 51000 nM; Kd (HLA-A*31:01; [5]): ≥ 77900 nM; Kd (HLA-A*33:01; [5]): 4.33 µM; Kd (HLA-A*68:01; [5]): 1050 nM
FISDNKKEYK,1880,47.5,118,1.05,11.3,

Sequence,Kd (HLA-A*03:01; [1]) [nM],Kd (HLA-A*11:01; [1]) [nM],Kd (HLA-A*31:01; [1]) [nM],Kd (HLA-A*33:01; [1]) [µM],Kd (HLA-A*68:01; [1]) [nM],also measured
FLSGKGLGK,,,,,,Kd (HLA-A*03:01; [4]): 6.26 nM
FMTLVPVLEK,82.6,3.96,73.3,0.02,2,
FSPENKAFK,6250,5020,6710,3.92,133,
GLFDFVNFVK,0.324,0.911,66.1,1.2,7.36,
GMMVLKIVR,,,,,,Kd (HLA-A*31:01; [6]): 11.3 nM
GMSYYCKSHK,,,,,,Kd (HLA-A*03:01; [3]): 20 nM; Kd (HLA-A*11:01; [3]): 91.3 nM; Kd (HLA-A*31:01; [3]): 111 nM; Kd (HLA-A*33:01; [3]): 9.96 µM; Kd (HLA-A*68:01; [3]): 1370 nM
GQRCHFIKK,21.4,13.4,62,13.2,≥ 25000,
GTIAGGVCY,4070,69.7,≥ 62600,≥ 77.7,7900,
GVEDTESIER,≥ 70100,948,1930,0.673,1840,
HAIGTSITQK,,,,,,Kd (HLA-A*68:01; [4]): 34.5 nM
HLKCKVRMEK,,,,,,Kd (HLA-A*03:01; source organism: Dengue virus 4 Philippines/H241/1956): 55.4 nM
HSYAGDAAEH,,,,,,Kd (HLA-A*03:01; [7]): 1480 nM; Kd (HLA-A*11:01; [7]): 17700 nM; Kd (HLA-A*31:01; [7]): 2960 nM; Kd (HLA-A*33:01; [7]): ≥ 48 µM; Kd (HLA-A*68:01; [7]): 578 nM
IFYFISIYSR,175,4180,2.39,0.0762,38.9,
IMDLHPGSGK,,,,,,Kd (HLA-A*03:01; [4]): 60.1 nM
IMVASDVCKK,16.9,53.3,270,7.13,74.4,
ISEKETLNEY,≥ 70100,3000,≥ 45800,≥ 55.6,≥ 35000,
ISLNSMYTR,6100,37.4,4.62,0.0856,13.3,
ISQGAGWSLR,,,,,,Kd (HLA-A*31:01; [2]): 8.62 nM
ISSVQLSNNK,943,121,4420,3,1280,
IVFVCVEYY,,,,,,Kd (HLA-A*03:01; [3]): 49.7 nM; Kd (HLA-A*11:01; [3]): 41 nM; Kd (HLA-A*31:01; [3]): 112 nM; Kd (HLA-A*33:01; [3]): 0.844 µM; Kd (HLA-A*68:01; [3]): 23 nM
IVNAANIHLK,,,,,,Kd (HLA-A*03:01; [3]): 51.1 nM; Kd (HLA-A*11:01; [3]): 104 nM; Kd (HLA-A*31:01; [3]): 2230 nM; Kd (HLA-A*33:01; [3]): ≥ 70 µM; Kd (HLA-A*68:01; [3]): 66.5 nM
